Literature values as cited in patent US20190390191A1, “CONSTRUCTING ENZYME-BASED SENSORS” (PharmaSeq, Inc., priority 2018, published 2019).

What was measured:
[1] = for T. aquaticus; Yeh et al.
[2] = E. coli enzyme; Boulanger et al.

Row | Substance | Km [1] [µM] | Tm [2] [°C]
1 | Alkaline phosphatase | 840 | –
2 | Alkaline phosphatase of E. coli: zinc-containing dimeric enzyme encoded by the phoA gene of E. coli | – | 97
